Columns and labels:
[1] = molecular target: T1, human CLDN18.2 (human); test: flow cytometry; % positive tumor cells divided by % positive healthy stomach cells
T1 construct: also called huCLDN18.2; hCLDN18.2
Protocol: Two Balb/c mice were implanted subcutaneously with 1×10⁶ A549 cells expressing CLDN18.2 in 100 μl of 50% Matrigel and tumors growth was monitored over a few weeks until the tumor reached the desired size between 150-450 mm 3. Healthy stomach tissue and tumor tissue was collected for FC analysis. The collected tissues were cut into small pieces and digested with the Miltenyi tumor dissociation kit (MACS Miltenyi Biotec, Germany). Tissue pieces were incubated with dissociation buffer (prepared according to the manufacturer instruction) in 6 well plates for 30 min in 37° C. under permanent gentle rocking motion. Samples were resuspended and strained through a 70 μm cell strainer (Corning, USA) followed by a wash with 20 ml FC buffer (PBS+2% FBS). Cell suspensions were centrifuged (5 min at 400 g for 4° C.) and the supernatants were discarded. If needed, cell suspensions were passed through a strainer and centrifuged repeatedly and pellets resuspended in 5 ml of red blood cell lysis buffer (Biolegend, USA), incubated on ice for 4 min. After incubation, 25 ml of PBS was added, and the suspensions were centrifuged again (5 min at 400 g for 4° C.). Pellets were resuspended in FC buffer (0.5-3 ml based on pellets). Equal number of cells were transferred into 96 well plates and further processed for FC analysis. The cells in the plates were washed with PBS and centrifuged (400 g for 2 min at 4° C.). […] After incubation, cells were washed twice in PBS and centrifuged (400 g for 2 min at 4° C.). Pellets were resuspended in 50 μl/well of secondary staining mix (PBS+PE-labelled anti-human antibody) (Thermo Fisher Scientific, USA), and incubated 25 min on ice. After incubation cells were washed again twice in PBS. Pellets were resuspended in 100 μl of PBS containing DAPI. Plates were kept on ice until FC analysis. For FC analysis, live cells were separated from dead cells by forward scatter and DAPI stain. Live cells were then gated for the presence of cytokeratin ([…]) and bound CLDN18.2 antibodies (PE positive cells).

[2] = molecular target: T1, human CLDN18.2; test: flow cytometry titration, HEK293T cells overexpressing CLDN18.2
Protocol: (§1) In order to have a more homogenous cell population, the cells were sorted by FACS to select only cells with a the higher CLDN18.2 expression. […] After wash in FACS buffer, the cells were incubated with the PE-labeled Fey specific IgG goat anti-human secondary antibody (eBioscience) on ice for 30 min. After wash, the stained cells were resuspended in FACS buffer, analyzed and sorted by a FACSAria™ instrument, separating medium expressing cells from high expressing cells (FIG. 2B). […] HEK293T cells overexpressing CLDN18.2 or CLDN18.1 were generated as described in Example 3 and the expression of CLDN18.2 was analyzed by flow cytometry (FIG. 3).
(§2) A PE-coupled secondary anti-human IgG antibody was added to the cells for additional 30 min at 4° C. after washes with the FC buffer, followed by further washes with FC buffer. The cells were then resuspended in 100 μl FC buffer and measured with a FACSCalibur™ cell analyzer (BD Biosciences, USA).

[3] = molecular target: T1, human CLDN18.2; test: ELISA on CLDN18.2-lipoparticles
Protocol: (§3) CLDN18.2-lipoparticles and Null-lipoparticles (without antigens) were used to coat 96-well plates at a final concentration of 10 U/ml in 100 mM sodium carbonate, pH 9.6. Upon washing with PBS/0.05% Tween-20 (PBS-T) and blocking with PBS-T/3% BSA for at least 1 h at 37° C., 1:3 serial dilutions of hCl antibodies with a starting concentration of 2 μg/ml were added and incubated for at least 1 h at 37° C.

[4] = molecular target: T1, human CLDN18.2; test: flow cytometry titration, PA-TU-8988S-High cells
Protocol: as §1, §2

[5] = molecular target: T1, human CLDN18.2; test: ELISA on CLDN18.2-lipoparticles, after Asn-deamidation stress test
Protocol: The stressed and non-stressed sample was stored at −80° C. Asn-deamidation and Asp-isomerization of the samples was analyzed by strong cation exchange (SCX) chromatography. Deamidation of Asn leads in a SCX chromatogram to an increase of the peak area before the main peak (bM), while Asp-isomerization leads in a SCX chromatograph to an increase of the peak area after the main peak (aM) (Du et al. 2012). SCX chromatography was performed on a MAbPac SCX-10 Column (ThermoFisher Scientific, Basel, CH), with buffer A at pH 4.0 and buffer B at pH 11.0. The flow rate was of 0.5 ml/min with a pH gradient of 30-80% buffer B. 10 μg of the sample in 20 μl of buffer A was injected into the column. Sample detection was performed by protein absorbance at 280 nm. […] NS motifs are the second most liable motifs for deamidation.
as §3

B1: IMAB362 (antibody, human IgG1, kappa, V domains shown)
VH: QVQLQQPGAELVRPGASVKLSCKASGYTFTSYWINWVKQRPGQGLEWIGNIYPSDSYTNYNQKFKDKATLTVDKSSSTAYMQLSSPTSEDSAVYYCTRSWRGNSFDYWGQGTTLTVSS
VL: DIVMTQSPSSLTVTAGEKVTMSCKSSQSLLNSGNQKNYLTWYQQKPGQPPKLLIYWASTRESGVPDRFTGSGSGTDFTLTISSVQAEDLAVYYCQNDYSYPFTFGSGTKLEIKR
notes: Control, chimeric IgG1, synthesized from the published chains; also called Claudiximab; Zolbetuximab
Ratio tumor/stomach (Average) [1]: 0.88 | Ratio tumor/stomach (Mouse 1) [1]: 2.53 | Ratio tumor/stomach (Mouse 2) [1]: 0.29 | EC50 [2]: 0.388 µg/mL | Max MFI [2]: 1970 MFI | EC50 [3]: 0.0515 µg/mL | EC50 [4]: 0.508 µg/mL | Max MFI [4]: 1050 MFI

B2: IMAB362 after the Asn-deamidation stress test (antibody, human IgG1, kappa, V domains shown)
VH: QVQLQQPGAELVRPGASVKLSCKASGYTFTSYWINWVKQRPGQGLEWIGNIYPSDSYTNYNQKFKDKATLTVDKSSSTAYMQLSSPTSEDSAVYYCTRSWRGNSFDYWGQGTTLTVSS
VL: DIVMTQSPSSLTVTAGEKVTMSCKSSQSLLNSGNQKNYLTWYQQKPGQPPKLLIYWASTRESGVPDRFTGSGSGTDFTLTISSVQAEDLAVYYCQNDYSYPFTFGSGTKLEIKR
modifications: partly deamidated Asn after 1 week at pH 8.0 and 40 °C; sites not determined (NS motif at LC CDR1 aa 31-32 named as liable); partly deamidated Asn after 1 week at pH 8.0 and 40 °C; sites not determined (NS motif at HC CDR3 aa 103-104 named as liable)
notes: also called stressed IMAB362; deamidated IMAB362
EC50 [5]: 0.0951 µg/mL | fold change of EC50 against non-stressed IMAB362 [5]: 1.8 fold

From patent publication US20240034783A1 (SOTIO BIOTECH A S, published 2024)
